The source of these data is patent US20240199755A1, “ANTAGONISTS AND AGONISTS OF THE TRANSFERRIN RECEPTOR-2 FOR USE IN THE TREATMENT OF DISEASES OF THE BONE” (Kymab Limited, priority 2018, published 2024).

Experiment [1] relates to BMPs-2, 4, 6 and 7. As to the kind of experiment: SPR binding of BMP ligands to Tfr2-ECD immobilized on the sensor chip. Here is the method: For this purpose, Tfr2-ECD is immobilized on a Series S Sensor Chip C1 (GE Healthcare), by means of coupling the amino groups at 25° C. The carboxyl groups on the chip surface are activated for 7 minutes using a mixture of 196 mM 1-ethyl-3-(3-dimethylaminopropyl) carbodiimide-hydrochloride and 50 mM n-hydroxysuccinimide at a flow rate of 10 μl/min. Subsequently, 5 μg/ml Tfr2-ECD, diluted with sodium acetate buffer (pH 4.5), is injected at a flow rate of 5 μl/min up to a relative occupancy of 200 RU. Non-reacted groups are inactivated by injecting 1 M thanolamine-HCl (pH 8.5) for 7 minutes at a flow rate of 10 μl/min. In order to prepare a reference surface, the same procedure is carried out but without Tfr2-ECD being injected.
The binding assays are carried out at 37° C. at a flow rate of 30 μl/min. Each analyte is diluted by a running buffer (HBS-P, pH 7.4 together with 50 nM FeCl3). BMPs are used in a concentration of 50 nM and BMP receptors are used in a concentration of 200 nM. The binding assays are carried out by means of analyte injection for 300 s over the Tfr2-ECD surface, followed by dissociation for 1000 s. The values of the binding level are read out, relative to the baseline, 10 s before the end of the injection and are corrected with respect to the molar mass. Following the dissociation for 1000 s, the chip surface is regenerated for 60 s by means of HBS-P together with 5 M NaCl and 50 mM NaOH and is stabilized for 1000 s. The binding parameters are determined using the Biacore™ T100 evaluation software 2.03.
Tfr2-ECD, BMP-2 and BMP-4 were immobilized onto Series S Sensor Chips C1 (GE Healthcare) via its amine groups at 25° C. […]
For binding analysis, an injection of analyte for 240 s or 300 s over a Tfr2-ECD surface was followed by 1000 s dissociation. The values of the binding levels were recorded from referenced signals 10 s before the end of injection relative to baseline response. […]
For orientation: SPR reads the build-up and loss of mass on a sensor chip optically.

The test system of experiment [2] is trauma-induced heterotopic ossification. As to the kind of experiment: Trauma-potentiated (drop-weight) heterotopic ossification model. It counts as in vivo. As to conditions: WT mice; after three weeks; Tfr2-ECD single dose, palovarotene or ibuprofen daily. The procedure:
For systemic Tfr2-ECD treatment, WT mice were treated every other day with Tfr2-ECD intraperitoneally for two weeks. Mice received 250 μg Tfr2-ECD (10 mg/kg BW) per injection for the first 10 days after BMP-2/matrigel injection into the muscle and 125 μg per injection (5 mg/kg BW) for the remaining time. This experiment was performed once with 8-10 mice per group. Drop-weight HO: This experiment was performed according to Liu et al. with minor modifications^65. Female 10-12-week-old WT mice were anesthetized and placed on a ridge of a plastic container over which the right leg was bent so the femur was lying horizontally. Mice received an injection of 1 μg BMP-2 mixed in 50 μl matrigel. Afterwards, a stainless-steel ball of 16 g (16 mm diameter) was dropped from a distance of 80 cm height onto the quadriceps muscle. Mice either received a single dose of 1 μg Tfr2-ECD, which was co-injected with the BMP-2/matrigel mixture, or palovarotene (Hycultec), which was administered daily by oral gavage. Palovarotene was dissolved in DMSO and diluted 1:4 with corn oil. Mice received palovarotene at a dose of 100 μg/mouse for the first five days and 50 μg/mouse for the remainder of the experiment (days 621). One group of mice received ibuprofen via the drinking water at a dose of […] which was changed every other day^66. […]

B1: Tfr2-ECD: Recombinant full-length extracellular domain (aa 103-798) of murine Tfr2, His-tagged, expressed in Sf9 insect cells (protein, listed as Mus musculus)
chain: RGSCQACGDSVLVVDEDVNPEDSGRTTLYWSDLQAMFLRFLGEGRMEDTIRLTSLRERVAGSARMATLVQDILDKLSRQKLDHVWTDTHYVGLQFPDPAHANTLHWVDADGSVQEQLPLEDPEVYCPYSATGNATGKLVYAHYGRSEDLQDLKAKGVELAGSLLLVRVGITSFAQKVAVAQDFGAQGVLIYPDPSDFSQDPHKPGLSSHQAVYGHVHLGTGDPYTPGFPSFNQTQFPPVESSGLPSIPAQPISADIADQLLRKLTGPVAPQEWKGHLSGSPYRLGPGPDLRLVVNNHRVSTPISNIFACIEGFAEPDHYVVIGAQRDAWGPGAAKSAVGTAILLELVRTFSSMVSNGFRPRRSLLFISWDGGDFGSVGATEWLEGYLSVLHLKAVVYVSLDNSVLGDGKFHAKTSPLLVSLIENILKQVDSPNHSGQTLYEQVALTHPSWDAEVIQPLPMDSSAYSFTAFAGVPAVEFSFMEDDRVYPFLHTKEDTYENLHKMLRGRLPAVVQAVAQLAGQLLIRLSHDHLLPLDFGRYGDVVLRHIGNLNEFSGDLKERGLTLQWVYSARGDYIRAAEKLRKEIYSSERNDERLMRMYNVRIMRVEFYFLSQYVSPADSPFRHIFLGQGDHTLGALVDHLRMLRADGSGAASSRLTAGLGFQESRFRRQLALLTWTLQGAANALSGDVWNIDNNF
modifications: His tag
notes: Recombinant full-length extracellular domain (aa 103-798) of murine Tfr2, His-tagged, expressed in Sf9 insect cells
Turning to B1, the “Binding of BMPs-2, 4 and 6 to Tfr2-ECD at high salt concentrations” value in experiment [1] (500 mM NaCl in running buffer) is “at a lower level”. In addition, in experiment [1] (BMP ligands 50 nM, 1 mg/ml holo-Tf), the “Binding of BMPs to immobilized Tfr2-ECD compared with holo-transferrin” value was “more avidly than holotransferrin”. In addition, in experiment [1] (BMP-2 vs holo-Tf), the “Binding of BMP-2 to Tfr2 relative to that of holo-Tf” value was “more than 10 fold”. Moreover, in experiment [2], the “New bone formation in the muscle (trauma-induced HO, μCT)” value is listed as “inhibited new bone formation in the muscle comparable to palovarotene”.
